The target in assay [1] is T1, synthetic peptide … (SEQ ID NO: 794), state with N-terminal leucine (LIFAG) (human, not fully specified (C-terminus); also: C-terminal azidolysine conjugated to DNA-streptavidin linker).
T1 construct: residue range inferred from the recognized N-terminal residue
T1 peptide: LIFAG
The experiment in a line: single-molecule on-chip dynamic sequencing with PS610, PS961, PS691, PhTET2 and PhTET3. The method, then:
(§1) The transition from leucine to isoleucine recognition by PS961 is readily identified as a sharp change in average PD. This overall pattern is replicated across many instances of sequencing of the same peptide, with similar PD statistics across traces, as each peptide molecule follows the same reaction pathway over the course of the sequencing run (FIGS. 3B-3C).
(§2) The semiconductor chip was placed in the sequencing device and a chip check was performed to test electronic circuit function and to optimize laser coupling alignment. The chip was then removed from the device socket and the chip was washed twice with 50 μL of 70% isopropanol, followed by four washes with 30 μL of wash buffer (50 mM MOPS pH 8.0, 60 mM potassium acetate, 50 mM glucose, 20 mM magnesium acetate, and surfactant mix) through a flow cell attached to the chip. […] The laser was unblocked and the occupancy percentage (target 10-30%, Poisson distributed) was recorded by acquiring a photobleaching signal from a fluorophore attached to the peptide complex during 5 min of laser illumination. For NAA recognition-only assays, after peptide loading, labeled recognizer was added to a final concentration of 50 nM PS610, 100 nM PS691, or 250 nM PS961 (as indicated according to the experiment), and data was recorded for 10 hours. […] Data was recorded for 15 min. […] The laser was then unblocked, and data was recorded for 10 hours.

In assay [2] the target is T2, synthetic peptide … (SEQ ID NO: 794), state with N-terminal isoleucine (IFAG) (human, not fully specified (C-terminus); also: C-terminal azidolysine conjugated to DNA-streptavidin linker).
T2 construct: residue range inferred from the recognized N-terminal residue
T2 peptide: IFAG
The description is as above. As for the experimental part:
as §1, §2

Assay [3] deals with T3, RLMoFAYPDDD (SEQ ID NO: 858), state with N-terminal methionine sulfoxide (MoFAYPDDD) (also: C-terminal azidolysine conjugated to DNA-streptavidin linker).
T3 construct: residue range inferred
T3 peptide: [Met(O)]FAYPDDD[Lys(N3)]
The experiment in a line: single-molecule on-chip dynamic sequencing.

The target of assay [4] is T4, … (SEQ ID NO: 801), state with N-terminal methionine (MFAYPDDD) (not fully specified (C-terminus); also: C-terminal azidolysine conjugated to DNA-streptavidin linker).
T4 construct: residue range inferred from the recognized N-terminal residue
T4 peptide: MFAYPDDD
The experiment in a line: single-molecule on-chip dynamic sequencing.

Assay [5] has as its target peptide with N-terminal IAA (C-terminal azidolysine conjugated to DNA-streptavidin linker). The experiment in a line: single-molecule on-chip NAA recognition-only assay; immobilized peptide, dye-labeled recognizer in solution. The method, then:
(§3) The semiconductor chip was placed in the sequencing device and a chip check was performed to test electronic circuit function and to optimize laser coupling alignment. The chip was then removed from the device socket and the chip was washed twice with 50 μL of 70% isopropanol, followed by four washes with 30 μL of wash buffer (50 mM MOPS pH 8.0, 60 mM potassium acetate, 50 mM glucose, 20 mM magnesium acetate, and surfactant mix) through a flow cell attached to the chip. A second chip check was then performed. The laser was then blocked via an integrated software-controlled shutter, peptide complex was added to a final concentration of 1-10 nM and mixed thoroughly, and the chip was incubated for 15 min. The chip was then washed six times with wash buffer, followed by addition of an imaging solution (wash buffer with 5 mM Trolox and an oxygen scavenging system). The laser was unblocked and the occupancy percentage (target 10-30%, Poisson distributed) was recorded by acquiring a photobleaching signal from a fluorophore attached to the peptide complex during 5 min of laser illumination. For NAA recognition-only assays, after peptide loading, labeled recognizer was added to a final concentration of 50 nM PS610, 100 nM PS691, or 250 nM PS961 (as indicated according to the experiment), and data was recorded for 10 hours. For dynamic sequencing assays, after peptide loading, a mixture of labeled recognizers was added to obtain final concentrations of 50 nM PS610, 100 nM PS691, and 250 nM PS961. Data was recorded for 15 min. The laser was then blocked briefly and aminopeptidases were added to the sequencing reaction via the flow cell and mixed thoroughly (final concentration 2-8 μM PhTET2 and/or 20-80 μM PhTET3, as indicated according to the experiment). The laser was then unblocked, and data was recorded for 10 hours. For all runs, 30 μL of mineral oil was added to fluid reservoirs at each port of the flow cell to prevent evaporation during the run.

The target of assay [6] is peptide with N-terminal LAA (C-terminal azidolysine conjugated to DNA-streptavidin linker). The description is as above. The method, then: as §3
The target in assay [7] is peptide with N-terminal VAA (C-terminal azidolysine conjugated to DNA-streptavidin linker). The assay is described as above. As for the experimental part:
as §3

Assay [8] concerns the target T5, labeled peptide with N-terminal methionine (XAKLDEESILKQK-FITC, SEQ ID NO: 833, X = M).
T5 peptide: MAKLDEESILKQK-{FITC′}
The experiment in a line: fluorescence polarization titration, FITC-labeled peptide (FIG. 9D). The method, then:
As an example, methionine oxidation was examined. The thioether moiety of the methionine side chain is susceptible to oxidation during peptide synthesis and sequencing. […] It was determined computationally that methionine sulfoxide is highly unfavorable in the PS961 NAA binding pocket and that non-polar residues are preferred at P2 (FIG. 9E). The synthetic peptide […] (SEQ ID NO: 801) was sequenced, and two populations of traces with distinct kinetic signatures were observed—a first population containing leucine recognition with median PD of 0.86 s, and a second population with median PD of 0.35 s (FIG. 4C).
Binding affinity was measured by polarization using a labeled peptide. The polarization response and total intensity measurements were carried out at 20° C. on a microplate fluorometer with 480 nm excitation and 530 nm emission. The interaction of recognizer with labeled peptide containing a target N-terminal residue (XAKLDEESILKQK-FITC (SEQ ID NO: 833)) was performed in PBS buffer at pH 7.4 and readings were collected after 30 min. Multiple analyses were performed at increasing recognizer concentration at a fixed concentration of a target peptide to obtain a titration curve. An equilibrium polarization response at each concentration was plotted and fit to calculate the KD.

Square brackets hold non-standard residues; d marks the D form. Primed or numbered codes have the meaning given here. Ends that are not written are not given here. Lys(N3) = [N-]=[N+]=NCCCC[C@H](N)C(=O)O; Met(O) = CS(=O)CC[C@H](N)C(=O)O; FITC′ = not defined here

B1: PS961 (designed binder)
chain: MPTAASATESAIEDTPAPARPEVDGRTKPKRQPRYHVVLWDDDDHTYQYVVVMLRSLFGHPPSRGYRMAKEMDTQGRVIVLTTTREHAELKRDQIHAFGRDRLLARSKGSMKASIEAEE
notes: also called PS961 (L, I, V); PS961 (LIV)
As to B1, the binding result in assay [1] is given as “binds”; in assay [2], “binds”; in assay [3], “no binding (tested: 250 nM PS961)”; in assay [4], “binds”. Also, the entries for the “median pulse duration (PD)” value in assay [5], in assay [6] and in assay [7] were 0.28 s, 1.21 s and 0.21 s, respectively. In addition, in assay [8], the Kd worked out at 0.947 µM.

For orientation: Kd means the free concentration of one partner at which half of the binding sites on the other are occupied at equilibrium, for simple one-to-one binding.
